Measurements: patent publication US20190248900A1 (Y BIOLOGICS, published 2019)
Changes are numbered by the printed parent chain.

Legend:
M13 = molecular target: T1, M13; assay: scFv-phage ELISA
T1 construct: also called PD1 mutant M13

M2-2 = molecular target: T2, M2-2; assay: scFv-phage ELISA
T2 construct: also called PD1 mutant M2-2

M2-1 = molecular target: T3, M2-1; assay: scFv-phage ELISA
T3 construct: also called PD1 mutant M2-1

M9 = molecular target: T4, M9; assay: scFv-phage ELISA
T4 construct: also called PD1 mutant M9

M2 = molecular target: T5, M2; assay: scFv-phage ELISA
T5 construct: also called PD1 mutant M2

M5-2 = molecular target: T6, M5-2; assay: scFv-phage ELISA
T6 construct: also called PD1 mutant M5-2

M10 = molecular target: T7, M10; assay: scFv-phage ELISA
T7 construct: also called PD1 mutant M10

M1-2 = molecular target: T8, M1-2; assay: scFv-phage ELISA
T8 construct: also called PD1 mutant M1-2

M1-1 = molecular target: T9, M1-1; assay: scFv-phage ELISA
T9 construct: also called PD1 mutant M1-1

M7-1 = molecular target: T10, M7-1; assay: scFv-phage ELISA
T10 construct: also called PD1 mutant M7-1

M5-1 = molecular target: T11, M5-1; assay: scFv-phage ELISA
T11 construct: also called PD1 mutant M5-1

M7 = molecular target: T12, M7; assay: scFv-phage ELISA
T12 construct: also called PD1 mutant M7

M14 = molecular target: T13, M14; assay: scFv-phage ELISA
T13 construct: also called PD1 mutant M14

M8 = molecular target: T14, M8; assay: scFv-phage ELISA
T14 construct: also called PD1 mutant M8

M1 = molecular target: T15, M1; assay: scFv-phage ELISA
T15 construct: also called PD1 mutant M1

ITGA6-Fc = molecular target: T16, ITGA6-Fc; assay: scFv-phage ELISA
T16 construct: Fc fusion
T16 sequence (P23229 whole entry, species assumed, looked up): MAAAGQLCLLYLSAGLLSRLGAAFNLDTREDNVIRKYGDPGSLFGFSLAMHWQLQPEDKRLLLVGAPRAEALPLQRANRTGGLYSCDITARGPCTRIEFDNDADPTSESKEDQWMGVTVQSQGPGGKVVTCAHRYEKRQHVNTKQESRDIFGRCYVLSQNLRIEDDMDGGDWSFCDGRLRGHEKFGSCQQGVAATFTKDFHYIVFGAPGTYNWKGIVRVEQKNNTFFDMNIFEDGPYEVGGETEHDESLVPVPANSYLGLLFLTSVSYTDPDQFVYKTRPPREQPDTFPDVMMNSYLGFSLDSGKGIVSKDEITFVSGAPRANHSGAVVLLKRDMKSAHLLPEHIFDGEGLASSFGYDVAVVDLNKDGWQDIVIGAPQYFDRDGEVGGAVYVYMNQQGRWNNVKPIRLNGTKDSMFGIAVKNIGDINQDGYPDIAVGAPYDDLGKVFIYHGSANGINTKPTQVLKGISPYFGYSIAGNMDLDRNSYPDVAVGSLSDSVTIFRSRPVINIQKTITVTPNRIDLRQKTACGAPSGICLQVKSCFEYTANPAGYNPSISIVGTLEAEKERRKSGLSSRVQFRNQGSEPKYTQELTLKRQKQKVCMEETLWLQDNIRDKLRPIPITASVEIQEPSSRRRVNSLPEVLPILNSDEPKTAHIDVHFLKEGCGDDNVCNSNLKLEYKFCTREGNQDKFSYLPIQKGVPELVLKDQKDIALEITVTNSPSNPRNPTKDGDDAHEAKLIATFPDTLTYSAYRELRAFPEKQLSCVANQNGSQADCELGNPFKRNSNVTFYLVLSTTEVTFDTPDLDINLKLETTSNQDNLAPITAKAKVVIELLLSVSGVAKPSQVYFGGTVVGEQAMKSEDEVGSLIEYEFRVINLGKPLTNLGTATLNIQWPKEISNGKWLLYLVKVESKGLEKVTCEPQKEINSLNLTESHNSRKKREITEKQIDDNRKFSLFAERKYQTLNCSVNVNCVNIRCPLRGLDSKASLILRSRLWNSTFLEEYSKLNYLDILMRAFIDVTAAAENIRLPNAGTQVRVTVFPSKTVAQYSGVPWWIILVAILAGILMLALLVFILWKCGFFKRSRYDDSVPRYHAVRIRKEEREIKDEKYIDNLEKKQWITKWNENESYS

M11 = molecular target: T17, M11; assay: scFv-phage ELISA
T17 construct: also called PD1 mutant M11

M7-2 = molecular target: T18, M7-2; assay: scFv-phage ELISA
T18 construct: also called PD1 mutant M7-2

M6 = molecular target: T19, M6; assay: scFv-phage ELISA
T19 construct: also called PD1 mutant M6

M5 = molecular target: T20, M5; assay: scFv-phage ELISA
T20 construct: also called PD1 mutant M5

M4 = molecular target: T21, M4; assay: scFv-phage ELISA
T21 construct: also called PD1 mutant M4

M3 = molecular target: T22, M3; assay: scFv-phage ELISA
T22 construct: also called PD1 mutant M3

M12 = molecular target: T23, M12; assay: scFv-phage ELISA
T23 construct: also called PD1 mutant M12

[1] = molecular target: human PD-1 (NM_005018.2) over-expressed on cells (human, UniProt Q15116 25-288); assay: cell-based or functional assay
Sequence of human PD-1 (NM_005018.2) over-expressed on cells (Q15116 25-288): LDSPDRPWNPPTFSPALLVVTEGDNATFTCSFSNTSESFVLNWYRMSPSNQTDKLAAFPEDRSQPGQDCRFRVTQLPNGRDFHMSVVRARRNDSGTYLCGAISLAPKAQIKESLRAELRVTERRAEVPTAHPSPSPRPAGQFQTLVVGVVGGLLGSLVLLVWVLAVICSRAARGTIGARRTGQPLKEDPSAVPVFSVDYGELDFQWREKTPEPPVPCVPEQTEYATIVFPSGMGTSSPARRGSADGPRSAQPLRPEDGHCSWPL

B1: PD1-51D9 (antibody, V domains shown)
VH: QVQLVESGAEVKKPGASVKLSCKASGYTFSSYWMHWVRQAPGQRLEWMGEINPGNGHTNYNEKFKSRVTITVDKSASTAYMELSSLRSEDTAVYYCAREGDGSYWGYFDSWGQGTPITVSS
VL: DIVMTQTPLSLPVTPGEPASISCRSSQSLLHSNGNNYLDWYLQKPGQSPQLLIYLGSYRASGVPDRFSGSGSGTDFTLKISRVEAEDVGLYYCMQGLQIPSTFGPGTKVDIK
notes: scFv-phage in the screening ELISA; whole IgG in the other assays
With B1 the OD490 (M13) was 0.7, the OD490 (M2-2) was 0.6 and the OD490 (M2-1) was 0.4. It also gave an OD490 (M9) of 0.3, an OD490 (M2) of 0.1 and an OD490 (M5-2) of 0.6. For the same binder, the OD490 (M10) was 0.1, the OD490 (M1-2) was 0.4 and the OD490 (M1-1) was 0.2. It also gave an OD490 (M7-1) of 0.1, an OD490 (M5-1) of 0.1 and an OD490 (M7) of 0.1. The OD490 (M14) was 0.8, the OD490 (M8) was 0.1 and the OD490 (M1) was 0.2. The OD490 (ITGA6-Fc) was 0.1, the OD490 (M11) was 0.1 and the OD490 (M7-2) was 0.3. It also gave an OD490 (M6) of 0.3, an OD490 (M5) of 0.1 and an OD490 (M4) of 1.1. For the same binder, the OD490 (M3) was 0.3 and the OD490 (M12) was 0.3.

B2: PD1-72D10 (antibody, V domains shown)
VH: QVQLVESGGGVVQPGRSLRLSCAASGFTFSSYAMHWVRQAPGKGLEWVAVISYDGSNKYYADSVKGRFTISRDNSKNTLYLQMNSLRAEDTAVYYCTTTTFDSWGQGTLVTVSS
VL: DIVMTQTPLSLPVTPGEAASISCRSSQSLLDSEDGNTYLDWYLQKPGQSPQLLIYTLSHRASGVPDRFSGSGSGTDFTLKISRVEAEDVGIYYCMQRVEFPFTFGQGTKLEIK
For B2, the “EC50 [nM], PD1/PD-L1 blockade bioassay” value [1] was 1.21 nM.

B3: PD1-49A2(A/2A11) (antibody, V domains shown)
VH: B2 VH with S30R, S56Q, N57D
VL: DIVMTQTPLSLPVTPGEPASISCRSSQSLFDSDDGNTYLDWYLQKPGQSPRLLIYTLSHRALGVPDRFSGSGSGTDFTLKISRVAAEDVGLYYCLQRMGFPYTFGQGTKLEIK
For B3, the “EC50 [nM], PD1/PD-L1 blockade bioassay” value [1] was 0.79 nM.

B4: PD1-49A2(A/1F12) (antibody, V domains shown)
VH: B2 VH with S30R, S31N, S56Q, N57H, G105S
VL: B2 VL with L9H, A18P, S62L, V89S, V98I, F102Y
In the case of B4, the “EC50 [nM], PD1/PD-L1 blockade bioassay” value [1] is reported as 1.03 nM.

B5: PD1-49A2(A/1H4) (antibody, V domains shown)
VH: B2 VH with S30P, S31I, S56A, N57H
VL: B2 VL with T7S, V89S, F102Y, E111D
B5 was tested, and the “EC50 [nM], PD1/PD-L1 blockade bioassay” value [1] was 0.84 nM.

B6: PD1-45D6(A/4C1) (antibody, V domains shown)
VH: B2 VH with S56N, N57D, T97V, T98P, D102E, S103Y
VL: B2 VL with A18P, E33D, E111D
For B6, the “EC50 [nM], PD1/PD-L1 blockade bioassay” value [1] was 1.76 nM.

B7: PD1-74H12 (antibody, V domains shown)
VH: B2 VH with T78M, Q82E, T97V, T98P, D102E, S103Y, T108S, L109Q
VL: DIVMTQTPLSLSVTPGEPASISCRSSQSLLDSDDGNTYLDWYLQKPGQSPQLLIYTLSHRASGVPDRFSGRGSHTDFTLTISSVEAEDVGVYYCMQRIHFPLTFGQGTRLEIK
B7 was tested, and the “EC50 [nM], PD1/PD-L1 blockade bioassay” value [1] was 0.98 nM.

B8: PD1-74A01 (antibody, V domains shown)
VH: B2 VH with A88S, T97V, T98P, D102E, S103Y, T108S, L109Q
VL: B2 VL with A18P, S32R, E33G, D34G, N36H, V98K, F102L, Q106P
B8 was tested, and the “EC50 [nM], PD1/PD-L1 blockade bioassay” value [1] was 1.01 nM.

B9: PD1-49A2(A/2B10) (antibody, V domains shown)
VH: B2 VH with S30L, S31V, N57H
VL: B2 VL with A18P, E33D, E85A, I91L, E111D
In the case of B9, the “EC50 [nM], PD1/PD-L1 blockade bioassay” value [1] is reported as 0.65 nM.

B10: PD1-45D6(A/3H6) (antibody, V domains shown)
VH: B2 VH with A40V, S56N, N57D, T97V, T98P, D102E, S103Y, T108S, L109Q
VL: B2 VL with I91V
For B10, the “EC50 [nM], PD1/PD-L1 blockade bioassay” value [1] was 1.49 nM.

B11: PD1-45D6(A/4H6) (antibody, V domains shown)
VH: B2 VH with S56N, N57D, T97V, T98P, D102E, S103Y
VL: B2 VL with A18P, L30F, E33D, I91L
In the case of B11, the “EC50 [nM], PD1/PD-L1 blockade bioassay” value [1] is reported as 1.19 nM.

B12: PD1-45D6(A/5H9) (antibody, V domains shown)
VH: B2 VH with S30W, S31T, S56N, N57D, T97V, T98P, D102E, S103Y
VL: B2 VL with A18P, E33D, P65S, K80E, I91V, V98R, E99D, L110V
With B12 the “EC50 [nM], PD1/PD-L1 blockade bioassay” value [1] was 2 nM.

B13: PD1-45D6(A/5A6) (antibody, V domains shown)
VH: B2 VH with S30R, S31L, Y53H, S56N, N57D, T97V, T98P, D102E, S103Y
VL: B2 VL with A18P, I91V, V98I, E99D, F102Y, E111D
In the case of B13, the “EC50 [nM], PD1/PD-L1 blockade bioassay” value [1] is reported as 0.92 nM.

B14: PD1-45D6(A/4D4) (antibody, V domains shown)
VH: B2 VH with S56N, N57D, T97V, T98P, D102E, S103Y
VL: B2 VL with A18P, D76E, T78N, K80R, L110V, E111D
With B14 the “EC50 [nM], PD1/PD-L1 blockade bioassay” value [1] was 1.74 nM.

B15: PD1-45D6(A/5C8) (antibody, V domains shown)
VH: B2 VH with S30M, S31R, S56N, N57D, T97V, T98P, D102E, S103Y
VL: B2 VL with T7S, A18P, I91V, E111D
With B15 the “EC50 [nM], PD1/PD-L1 blockade bioassay” value [1] was 1.44 nM.

B16: PD1-75C10 (antibody, V domains shown)
VH: B2 VH with T97V, T98P, D102E, S103Y, T108S, L109Q
VL: B2 VL with S82T, I91V, V98I, F102Y
B16 was tested, and the “EC50 [nM], PD1/PD-L1 blockade bioassay” value [1] was 0.81 nM.

B17: PD1-45D6(A/5B12) (antibody, V domains shown)
VH: B2 VH with S31V, S56N, N57D, T97V, T98P, D102E, S103Y
VL: B2 VL with L110V
For B17, the “EC50 [nM], PD1/PD-L1 blockade bioassay” value [1] was 0.8 nM.

B18: PD1-45D6(A/3H4) (antibody, V domains shown)
VH: B2 VH with A40V, S56N, N57D, T97V, T98P, D102E, S103Y, T108S, L109Q
VL: B2 VL with A18P, L30F, E33D, P65S, V89S, E111D
For B18, the “EC50 [nM], PD1/PD-L1 blockade bioassay” value [1] was 1.67 nM.

B19: PD1-74A11 (antibody, V domains shown)
VH: B2 VH with E6Q, T97A, T98R, S103Y, V110I
VL: B2 VL with A18P, L30F, E33D, H59Y, E85A, L110V, E111D
For B19, the “EC50 [nM], PD1/PD-L1 blockade bioassay” value [1] was 1.31 nM.

B20: PD1-45D6(A/3G1) (antibody, V domains shown)
VH: B2 VH with A40V, S56N, N57D, T97V, T98P, D102E, S103Y, T108S, L109Q
VL: B2 VL with A18P, K80E, I91V, E111D
With B20 the “EC50 [nM], PD1/PD-L1 blockade bioassay” value [1] was 0.98 nM.

B21: PD1-45D6(A/4C9) (antibody, V domains shown)
VH: B2 VH with S56N, N57D, T97V, T98P, D102E, S103Y
VL: B2 VL with E85A
For B21, the “EC50 [nM], PD1/PD-L1 blockade bioassay” value [1] was 2.72 nM.
